Laboratory results from paper PMC10243991.

Target: GST-MdPP2AC (apple (Malus × domestica Borkh.))
Test: MST; GST-MdPP2AC labelled with RED-NHS dye, 100 nM, in 0.05% PBS Tween buffer; MdSnRK2.6 titrated (3.81 × 10^−4 to 25 nM as printed); Monolith NT.115

Kd: 109 nM
Substance: MdSnRK2.6-His (enzyme)
